Test results from the supplement of paper PMC12764529.
± gives the half width of the 95% confidence interval.

Tests used:
[1] = folding stability dG unfold from trypsin proteolysis; higher = more stable
Outline: (§1)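 Unfolding free energy was derived, per protease or combined, against a sequence-predicted unfolded-state K50 and a shared folded-state K50, starting from K50 inferred by Bayesian fitting of sequencing counts. Digestion with trypsin and chymotrypsin was carried out on designed mini-proteins under 80 residues without cysteine in a PA-tagged cDNA display construct. Only designs with AlphaFold2 dimer inter-PAE above 15 were kept.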

[2] = folding stability dG unfold from chymotrypsin proteolysis; higher = more stable
Outline: as §1

[3] = folding stability dG unfold (combined trypsin and chymotrypsin); higher = more stable
Outline: as §1

| Sequence | folding stability dG unfold [1] [kcal/mol] | folding stability dG unfold [2] [kcal/mol] | folding stability dG unfold [3] [kcal/mol] |
| --- | --- | --- | --- |
| SAGGSAGGMPVSVEIELTVPTSPDETPEEALERIREELAPLGVEEVTATPLPDGTVRFRITVPRSAGGSAGG [r6_882_JUSTAS] | 1.44 ± 0.048 | 0.504 ± 0.2 | 0.961 ± 0.13 |
| SAGGSAGGMRLEIVVEMSEEEARELAEALRRELEERGYRVRVEVRRLPDGRLVVRVEIEPAPEPSAGGSAGG [r6_597_TrROS_Hall] | 4.47 ± 0.19 | 4.49 ± 0.093 | 4.63 ± 0.17 |
| SAGGSAGGMRLVVEDFDEEEMEEVERRVREFAEEHDVEVDIYRRRRPDGRVVLVVEIRPKEDLPSAGGSAGG [r6_906_TrMRF] | 2.87 ± 0.058 | 3.02 ± 0.034 | 2.95 ± 0.052 |
| SAGGSAGGMTFVDLGEDKPVVIEVPPRPETGLYPVVIHPPEKPVFVEVESPEEAIEAAEKLVEGSAGGSAGG [r6_715_TrMRF] | 1.42 ± 0.051 | 0.788 ± 0.045 | 1.12 ± 0.045 |
| SAGGSAGGMTITLRIKITNPDGEEKEIEVELELPEELKGKTLEELAAELAKALLPPGAKVEVEPSAGGSAGG [r6_821_TrROS_Hall] | 1.73 ± 0.048 | 3.15 ± 0.074 | 2.72 ± 0.14 |
| SAGGSAGGMTITLTLPDGTVITITVSRPGSPTTVVSVKAERPARGGTDIPEEVAKELAEKILKESAGGSAGG [r6_235_JUSTAS] | 1.51 ± 0.037 | 2.96 ± 0.11 | 2.55 ± 0.076 |
| SAGGSAGGMTKTEVTVTVEKVPDGTYVVKTTKTTTTTNPDGTLTSSTTTTTKTVTPEELAAVLASAGGSAGG [r6_974_JUSTAS] | 3.7 ± 0.15 | 2.86 ± 0.044 | 3.16 ± 0.11 |
| SAGGSAGGMTLLIRDPETNELVEVTVEEKDGKLTLTVRNKKTGETTEIEIPLDEEPIEIVLLEPSAGGSAGG [r6_465_TrROS_Hall] | 2.09 ± 0.12 | 2.61 ± 0.021 | 2.43 ± 0.12 |
| SAGGSAGGMTLVLEGMSEEELEELARKLRELAEELGLKVKITVERREDGRVRLTVEIELPEELPSAGGSAGG [r6_906_TrROS_Hall] | 4.36 ± 0.26 | 3.69 ± 0.23 | 4.15 ± 0.25 |
| SAGGSAGGMTVDPENPVVYYPGSDGKAQTYPLSPDSSLKLPDGKVVTVTPVPEGSVSVSVSPVESAGGSAGG [r6_296_JUSTAS] | 0.571 ± 0.03 | 1.249 ± 0.011 | 1.02 ± 0.036 |
| SAGGSAGGMTVPITLPLDEYSPEEVEAKIKAIREEIEKKNPDKKISINVTLVPQPPEPTPENLRSAGGSAGG [r6_729_JUSTAS] | -0.745 ± 0.14 | 0.517 ± 0.023 | 0.299 ± 0.07 |
| SAGGSAGGMTVTFTLPATAPENALENVTATVTYNGKTYLVKITATPVPDGPFVVVTAELVEYDPSAGGSAGG [r6_415_TrMRF] | 3.02 ± 0.083 | 3.68 ± 0.14 | 3.34 ± 0.17 |
| SAGGSAGGMVERPITLRVRVKTPEEVKKLVEELLKPTDAKADVVEEELEDGTVLVTLTIYVPEESAGGSAGG [r6_719_TrMRF] | 1.67 ± 0.019 | 1.58 ± 0.038 | 1.62 ± 0.042 |
| SAGGSAGGMVIEFPKEKVEEVKKELLDAGKPDWVIVTDPNDPDIIKIMPKSLAEEKGWKYTPLLSAGGSAGG [r6_710_JUSTAS] | 2.33 ± 0.073 | 2.06 ± 0.043 | 2.09 ± 0.16 |
| SAGGSAGGMVIHEIEVESPDPEKAEEEAKARAEEIRKALEEEEGGIPGEVKFVPTPEEDPLLLLSAGGSAGG [r6_23_JUSTAS] | 1.99 ± 0.13 | 0.834 ± 0.075 | 1.43 ± 0.13 |
| SAGGSAGGMVIKLPLPNDLYAEIPVYSNSDGIVTARIVLYDPSTEEKVEKPFELPFEELLDLLSSAGGSAGG [r6_858_TrMRF] | 0.328 ± 0.027 | 0.899 ± 0.054 | 0.712 ± 0.081 |
| SAGGSAGGMVKVLVNPDGGATFIFNKDGSTSTIPVPYTTLEDVKAAVEALAKEYGIEVEEIVPASAGGSAGG [r6_254_JUSTAS] | 0.395 ± 0.085 | 1.38 ± 0.12 | 0.982 ± 0.15 |
| SAGGSAGGMVKVYPIDPNTPPEAVVARLEKEFPDRPIKSVSVSTVGDVPVVTITFPDGLKVVVSSAGGSAGG [r6_492_JUSTAS] | 0.975 ± 0.029 | 1.43 ± 0.03 | 1.23 ± 0.072 |
| SAGGSAGGMVTITEVSYDPKIGKTFTLVTVKDPEGKETLVEVPLEEIEKLIEEVPEGRPVEIAPSAGGSAGG [r6_113_JUSTAS] | -0.0621 ± 0.054 | -0.983 ± 0.64 | -0.199 ± 0.19 |
| SAGGSAGGMVTSTDPATGIVYSLDPTTGVWSAQTVTLPPITIPVSEVPELLKALPPGTPILVLASAGGSAGG [r6_104_JUSTAS] | 1.01 ± 0.016 | 1.16 ± 0.064 | 1.14 ± 0.037 |
| SAGGSAGGMVVGILTITDPATGSSETLVIPMPSEEEAVERAKELAEELEAKKGKIVKVEIRPRPSAGGSAGG [r6_787_JUSTAS] | 1.39 ± 0.064 | 1.5 ± 0.088 | 1.32 ± 0.19 |

| Sequence | folding stability dG unfold [1] [kcal/mol] | folding stability dG unfold [2] [kcal/mol] | folding stability dG unfold [3] [kcal/mol] |
| --- | --- | --- | --- |
| SAGGSAGGMVYKIRDKETGKVYEVTIDEETNEITVYDVKTGKPVKTVNMTIEELKEAGYEVEPVSAGGSAGG [r6_831_TrROS_Hall] | 3.61 ± 0.16 | 3.27 ± 0.034 | 3.4 ± 0.2 |
| SAGGSAGGMYTVIEEEFTFPPSNPDVVIEVEYPDLPDSYTITQSTFPEGDTYHVRVTITVPPNLSAGGSAGG [r6_482_JUSTAS] | 0.314 ± 0.089 | 0.762 ± 0.1 | 0.605 ± 0.076 |
| SAGGSAGGMYVKIKVTMTADELKKLFPNIKKGEKVTVELVIKVEKAPPVKVEKKKEKKVEVKLKSAGGSAGG [r6_211_TrROS_Hall] | 0.661 ± 0.062 | 2.21 ± 0.041 | 1.74 ± 0.14 |
| SAGGSAGGNTIMIPLPPNMPLDEVAKELMDAFPDYPIKDVEYERYGDRPMVTVRFPDGWKITIWSAGGSAGG [r6_492_TrROS] | 0.543 ± 0.034 | 0.818 ± 0.22 | 0.838 ± 0.12 |
| SAGGSAGGNVILVETGPDGRARVLVFDPETGKVTEYEVPADDLDAIEAIAADKVDLVIVRPVGPSAGGSAGG [r6_639_TrMRF] | 1.75 ± 0.059 | 2.23 ± 0.028 | 2.07 ± 0.11 |
| SAGGSAGGNWKVEIWPNGEQQEYTIDEIKKQLKNDIPPNYMIRVKGSGKWIPVRELLKEAGIPLSAGGSAGG [r6_937_TrROS] | 0.382 ± 0.077 | 0.793 ± 0.11 | 0.691 ± 0.076 |
| SAGGSAGGPEIEVRFPDGWYVKITVERPEDGKVTVKVEVYHPDPNGKPIPPETAKNLAKEFLNKSAGGSAGG [r6_235_TrROS] | 0.945 ± 0.075 | 0.294 ± 0.12 | 0.67 ± 0.11 |
| SAGGSAGGPIKDSKGKFIVTFEFPNGLKKKFEVENIKNPEIEFNFNGKKVKTKIIEIKKGDESKSAGGSAGG [r6_575_TrMRF] | -0.117 ± 0.12 | -0.004 ± 0.21 | 0.0149 ± 0.12 |
| SAGGSAGGPIVIKVKSLEEAKELVEKLAKELTPENVKVEIKEVFEPENSYYVVIEIKTASPEEESAGGSAGG [r6_72_TrMRF] | 2.85 ± 0.14 | 2.51 ± 0.097 | 2.65 ± 0.22 |
| SAGGSAGGPIVLKFPSPEDLEKAIEIATAHGYEIELNPESGTLVINATGPMLEEFKKIPGLEISSAGGSAGG [r6_724_TrMRF] | 2.73 ± 0.12 | 2.66 ± 0.041 | 2.72 ± 0.092 |
| SAGGSAGGPKEKKWYVMVHITWRDDGKERPRHFMFKSPEQVIEALEEQLPPDNIEIDVAVFPYKSAGGSAGG [r6_114_TrROS] | 1.63 ± 0.034 | 2.95 ± 0.053 | 2.33 ± 0.086 |
| SAGGSAGGPKHVEIVITPDLRKEIEENQKEGDPPTLMEIAKEIAREFRANGMPVDIKILPPEDFSAGGSAGG [r6_815_TrROS] | 0.216 ± 0.07 | 0.29 ± 0.31 | 0.452 ± 0.23 |
| SAGGSAGGPLKVELVKAEILPGNKIIRVYRAELPTETYLAVIELHLNPDGEILSAKIKVYPLPESAGGSAGG [r6_19_TrMRF] | 2.85 ± 0.14 | 3.06 ± 0.052 | 3.06 ± 0.14 |
| SAGGSAGGPLPLEELRRLLESRPDYEILSVEDESPDYVVVTVRFPFPLPSDEERTLRLRLRFPLSAGGSAGG [r6_152_TrMRF] | 2.23 ± 0.056 | 3.374 ± 0.031 | 3.08 ± 0.094 |
| SAGGSAGGPLVVGRGTFPDGFTADAELRVPDSSETFYRTIEPGASLDEIPENYEVANITLSPAGSAGGSAGG [r6_758_TrMRF] | -0.289 ± 0.12 | -0.176 ± 0.13 | -0.162 ± 0.13 |
| SAGGSAGGPNIEIMSMFKHPNGTIVIFIRTPEGRYIVIKIPPPGNIKIVGVYPLPPGDPLLERLSAGGSAGG [r6_715_TrROS] | 2.43 ± 0.17 | 3.14 ± 0.12 | 3.06 ± 0.2 |
| SAGGSAGGPNWVKFPIMFEMPIPVVPKMEKDPDGENRMEPVKPVRISIMIELTLPPDDLEDLIKSAGGSAGG [r6_120_TrROS] | 1.41 ± 0.083 | 2.28 ± 0.11 | 1.83 ± 0.18 |
| SAGGSAGGPPPAKVVEVREVTLEDLENLDKLLVVFPDGKVYTSPEALRKWLEEGKPVLVAVFEGSAGGSAGG [r6_827_TrMRF] | 1.6 ± 0.084 | 1.96 ± 0.049 | 1.88 ± 0.15 |
| SAGGSAGGPPPYYMVEIEIERRNPKNGKKQKFPVTVIMPPKEAEKIKDELEEWGYEIKVDVHPISAGGSAGG [r6_97_TrROS] | 0.856 ± 0.15 | 0.393 ± 0.066 | 0.74 ± 0.18 |
| SAGGSAGGPVVISVPALVKLAKELGLKLVFFPETKTVILEHPDSFLIATIDSKGNVSIAPALPESAGGSAGG [r6_155_TrMRF] | 2.69 ± 0.09 | 2.59 ± 0.049 | 2.64 ± 0.091 |
| SAGGSAGGPYYIMVDIEMYNPQDGKERNFTLMIPVPPGDLPKIKEELLSAGFPIKIKNISIMPPSAGGSAGG [r6_151_TrROS] | 2.62 ± 0.14 | 2.88 ± 0.062 | 2.74 ± 0.18 |
